In US20210206850A1 (ACCURUS BIOSCIENCES, published 2021):
“And” between values parts separate entries of the source, which are not always exact repeats. Identical values can stand only once.

How the values were obtained:
[1] = target: human CD47 (full length) expressed on cells (human) (UniProt Q08722); assay: FACS ligand blocking on CD47-CHO cells; blocked ligand FITC human SIRPa huFc at 4 ug/ml
[2] = target: T1, human CD47ECD mouse Fc protein (human, UniProt Q08722 19-139, limits assumed); assay: SPR (Biacore 3000); antibody captured on anti-human Fc chip, bivalent HuCD47ECD muFc injected
T1 construct: extracellular domain; also called HuCD47ECD muFc; bivalent CD47ECD muFc protein; not shown: mouse Fc
Procedure: (§1) The binding affinities of anti-human CD47 mouse/human chimeric antibodies to human CD47 protein were determined with BIACORE™ using a capture method. The anti-human CD47 mouse/human chimeric antibodies were captured using anti-human Fc antibody coated on a CMS chip. Serial dilutions of human CD47ECD mouse Fc protein starting from 400 nM were injected over captured antibody for 1 mins at a flow rate of […]. Alternatively, serial dilutions of human CD47ECD His tagged protein starting from 800 nM were injected over captured antibody for 1 min at a flow rate of […]. The antigens were allowed to dissociate for 900s. All the experiments were carried out on a Biacore 3000. Data analysis was carried out using Biacore 3000 evaluation software.

[3] = target: T2, human CD47ECD His tagged protein (human, UniProt Q08722 19-139, limits assumed); assay: SPR (Biacore 3000); antibody captured on anti-human Fc chip, monovalent HuCD47ECD 8xHis injected
T2 construct: extracellular domain; also called HuCD47ECD 8xHis; monovalent CD47ECD His tagged protein
Procedure: as §1

[4] = target: T1, human CD47ECD mouse Fc protein; assay: SPR (Biacore 3000); antibody captured on anti-human Fc chip, bivalent HuCD47ECD muFc injected; column Affinity (nM)
Procedure: as §1

[5] = target: T2, human CD47ECD His tagged protein; assay: SPR (Biacore 3000); antibody captured on anti-human Fc chip, monovalent HuCD47ECD 8xHis injected; column Affinity (nM)
Procedure: as §1

[6] = target: T2, human CD47ECD His tagged protein; assay: ELISA competition; plate-bound human CD47ECD His, competitor ligand SIRPα huFc 1 ug/ml
Procedure: (§2) To evaluate the blocking ability of anti-human CD47 mouse mAb on recombinant human CD47 binding to its ligand SIRPα, an ELISA based ligand blocking assay was employed. Briefly, microtiter plates were coated with human CD47ECD His tagged protein at 1 μg/ml in PBS, 100 μl well at 4° C. overnight, then blocked with 100 μl/well of 2% BSA. […] The plates were washed with PBS/Tween and then incubated with anti-human IgG-HRP for 1 hour at 37° C. After washing, the plates were developed with TMB substrate and analyzed by spectrophotometer at OD 450 nm.

[7] = target: T3, human CD47ECD human Fc protein (human, UniProt Q08722 19-139, limits assumed); assay: ELISA, plate coated with human CD47ECD huFc at 1 ug/ml, goat anti-mouse IgG-HRP, OD450
T3 construct: extracellular domain; also called human CD47ECD huFc; human CD47huFc; not shown: human Fc
Excerpt: After washing, the plates were developed with TMB substrate and analyzed by spectrophotometer at OD 450 nm.

[8] = target: T4, His tagged mouse CD47 protein (mouse, UniProt Q61735 19-140, limits assumed); assay: ELISA, plate coated with His tagged mouse CD47 at 2 ug/ml, goat anti-mouse IgG-HRP, OD450
T4 construct: Bought protein
T4 sequence (looked up): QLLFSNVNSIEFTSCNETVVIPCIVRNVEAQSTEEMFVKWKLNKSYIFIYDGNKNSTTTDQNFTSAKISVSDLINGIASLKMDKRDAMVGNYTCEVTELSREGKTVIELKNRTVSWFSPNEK
Procedure: To evaluate the binding cross-reactivity of anti-human CD47 antibodies to cynomolgus and mouse CD47, an ELISA based binding assay was used. Briefly, microtiter plates were coated with His tagged cynomolgus monkey CD47 or His tagged mouse CD47 protein (purchase from Acro Biosystem). Both proteins were coated at 2 μg/ml in PBS, 100 μl/well at 4° C. overnight. The plates were then blocked with 100 μl/well of 2% BSA. Ten-fold dilutions of mouse anti-human CD47 hybridoma antibodies were added to each well starting at 70 ug/ml and incubated for 1-2 hours at RT. The plates were washed with PBS/Tween and then incubate with goat-anti-mouse IgG antibody conjugated with Horse Radish Peroxidase (HRP) for 1 hour at RT. After washing, the plates were developed with TMB substrate and analyzed by spectrophotometer at OD 450 nm.

[9] = target: T2, human CD47ECD His tagged protein; assay: ELISA ligand blocking, plate coated with human CD47 ECD His tagged protein at 1 ug/ml; blocked ligand human SIRPaECD huFc at 1 ug/ml, anti-human IgG-HRP
Procedure: as §2

T2 sequence (Q08722 19-139 limits assumed): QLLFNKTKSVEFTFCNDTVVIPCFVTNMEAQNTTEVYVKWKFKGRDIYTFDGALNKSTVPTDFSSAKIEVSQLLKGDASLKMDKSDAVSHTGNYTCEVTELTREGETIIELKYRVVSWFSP
T1 sequence (Q08722 19-139 limits assumed): as above
Sequence of human CD47 (full length) expressed on cells (human) (Q08722 19-323): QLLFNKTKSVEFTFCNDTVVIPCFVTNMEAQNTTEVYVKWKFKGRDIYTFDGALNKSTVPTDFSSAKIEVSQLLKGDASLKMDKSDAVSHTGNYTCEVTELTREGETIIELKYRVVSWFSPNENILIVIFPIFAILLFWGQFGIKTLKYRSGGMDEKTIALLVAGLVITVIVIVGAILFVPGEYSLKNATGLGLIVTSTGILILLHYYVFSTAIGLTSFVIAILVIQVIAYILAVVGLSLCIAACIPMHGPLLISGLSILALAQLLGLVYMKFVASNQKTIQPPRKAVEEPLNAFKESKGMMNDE
T3 sequence (Q08722 19-139 limits assumed): as the sequence (Q08722 19-139 limits assumed) above

B1: AB6.12, a humanized version of anti-CD47 antibody 2A1 from Celgene (antibody, from another filing, V domains shown)
VH: QMQLVQSGAEVKKTGSSVKVSCKASGFNIKDYYLHWVRQAPGQALEWMGWIDPDQGDTEYAQKFQDRVTITRDRSMSTAYMELSSLRSEDTAMYYCNAAYGSSSYPMDYWGQGTTVTVSS
VL: NIQMTQSPSAMSASVGDRVTITCKASQDIHRYLSWFQQKPGKVPKHLIYRANRLVSGVPSRFSGSGSGTEFTLTISSLQPEDFATYYCLQYDEFPYTFGGGTKVEIKR
[1]
  IC50: 8.6 µg/mL
[2]
  Kd: 0.0479 nM
  koff: 2.25e-05 s⁻¹
  kon: 469000 M⁻¹ s⁻¹
[3]
  Kd: 0.798 nM
  koff: 0.000703 s⁻¹
  kon: 881000 M⁻¹ s⁻¹
[4]
  Kd: 0.0479 nM
[5]
  Kd: 0.798 nM

B2: D36S4 mouse anti-human CD47 hybridoma antibody (antibody, V domains shown)
VH: EVKLEESGGGLVQPGGSMKLSCVASGFTFSRYWMNWVRQSPDKGLEWVAQIRLKSDNYETHYAESVKGRFTISRDDSKSSVYLQMNNLRAEDTGIYYCIEEGGYYVPFAYWGQGTLVTVSA
VL: DIVVSQSPSSLAVSAGEKVTMSCKSSQSLFKSRTRKNYLAWYQQRPGQSPKLLIYWASIRESGVPDRFTGSGSGTEFTLTISSVQAEDLAVYYCKQSYYLLTFGAGTKLELK
notes: Mouse hybridoma IgG
[6]
  IC50: 0.59 nM
[7]
  EC50 (read off the curve): ~0.02 µg/mL
[8]
  binding result: binds
[9]
  IC50: 0.09 µg/mL

B3: D28S1 mouse anti-human CD47 hybridoma antibody (antibody, V domains shown)
VH: EVQLVESGGDLVKPGGSLKLSCAASGFTFTSYGMSWVRQTPDKRLEWVATINTGGSYTYYPDSVKGRFTISRDNAKNTLYLQMSSLKSEDTAMYYCARHTIKSLMDYWGQGTSVTVSS
VL: ETTVTQSPASLSMAIGEKVTIRCITSTDIDDDMNWYQQKPGEPPKLLISEGNTLRPGVPSRFSSSGYGTDFVFIIENMFSEDVADYYCLQSDNLPYTFGSGTKLEIK
notes: Mouse hybridoma IgG
[6]
  IC50: 1 nM
[9]
  IC50: 0.15 µg/mL and 1.02 nM

B4: D96S1 mouse anti-human CD47 hybridoma antibody (antibody, V domains shown)
VH: EVQLQQSGAELVKPGASVKLSCTASGFNIKDTYIHWVKQRPEQGLEWIGRIDPANGNIKSDPKFQGKATVTADTSSNTAYLQLSSLTSEDTAVYYCARSYGSSFASWGQGTLVTVSP
VL: DIQMTQTTSSLSASLGDRVTISCRASQDISNHLNWYQQKPDGAVKLLIYYTSRLHSGVPSRFSGSGSGTDYSLTISNLEQEDIATYFCQQGSTFPYTFGGGTKLEIK
notes: Mouse hybridoma IgG
[8]
  binding result: no binding (tested: 70 ug/ml)
[9]
  IC50: 1.94 µg/mL and 12.9 nM

B5: D125S3 (antibody, V domains shown)
VH: EVQLVESGGDLVKPGGSLNLSCAASGFTFSDYGMSWVRQTPDMRLEWVATISKYGTYTSYPDSVKGRFTISRSNAKNTLYLQMSSLKSADTALYYCARRFFGNYNYWYFDVWGAGTTVTVSS
VL: DIVLTQSPASLAVSLGQRATFSCRASESVDEFGISYIHWYKKSPGQPPKLLIYRASTLESGISARFSGSGSGTDFTLTINPVETDDVATYYCQQSNQDPLTFGAGTKLELK
notes: Mouse hybridoma form; the mouse/human chimeric form with the same V regions is m18; also called D125S3 mouse anti-human CD47 hybridoma antibody
[8]
  binding result: no binding (tested: 70 ug/ml)
[9]
  IC50: 0.25 µg/mL and 1.69 nM
